For one data set, the target named is T1, Erk1, P27361.
T1 chain: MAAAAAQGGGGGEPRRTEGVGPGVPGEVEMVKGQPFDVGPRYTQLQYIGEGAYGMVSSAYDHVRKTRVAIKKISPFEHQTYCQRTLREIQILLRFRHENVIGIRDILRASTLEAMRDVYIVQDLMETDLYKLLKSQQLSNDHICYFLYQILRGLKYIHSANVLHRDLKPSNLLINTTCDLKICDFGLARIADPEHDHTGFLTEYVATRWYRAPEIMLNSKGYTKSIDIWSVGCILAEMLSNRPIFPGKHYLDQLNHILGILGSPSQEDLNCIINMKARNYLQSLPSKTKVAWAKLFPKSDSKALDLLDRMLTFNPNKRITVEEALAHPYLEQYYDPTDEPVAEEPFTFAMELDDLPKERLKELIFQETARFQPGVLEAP

Erk2, P28482, sequence (P28482 whole entry): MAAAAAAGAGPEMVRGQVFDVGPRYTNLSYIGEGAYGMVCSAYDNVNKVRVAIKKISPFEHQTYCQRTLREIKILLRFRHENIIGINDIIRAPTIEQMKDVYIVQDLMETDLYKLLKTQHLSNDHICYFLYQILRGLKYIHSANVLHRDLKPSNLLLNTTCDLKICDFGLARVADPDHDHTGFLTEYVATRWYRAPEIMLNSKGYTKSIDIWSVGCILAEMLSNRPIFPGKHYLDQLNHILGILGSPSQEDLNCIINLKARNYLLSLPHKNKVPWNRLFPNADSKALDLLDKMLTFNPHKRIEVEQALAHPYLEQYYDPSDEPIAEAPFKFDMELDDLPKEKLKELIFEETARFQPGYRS

B1: Flag-Rab2A (protein)
chain: MAYAYLFKYIIIGDTGVGKSCLLLQFTDKRFQPVHDLTIGVEFGARMITIDGKQIKLQIWDTAGQESFRSITRSYYRGAAGALLVYDITRRDTFNHLTTWLEDARQHSNSNMVIMLIGNKSDLESRREVKKEEGEAFAREHGLIFMETSAKTASNVEEAFINTAKEIYEKIQEGVFDINNEANGIKIGPQHAATNATHAGNQGGQQAGGGCC
Turning to B1, the Erk1/2 phosphorylation entry with Erk1, P27361 is “Flag-Rab2A expression restored Erk1/2 phosphorylation in a dose-dependent manner”; with Erk2, P28482, “Flag-Rab2A expression restored Erk1/2 phosphorylation in a dose-dependent manner”.

These data come from patent publication US20170112792.
